Sequences and labels used below:
B1: NLV3 TCR beta chain (CDR3β only) (parent)
chain: ASSPTGGSPSPLH
partner: NLCPMVATV

The variants in this assay derive from B1. Briefly: T-Switch: Jurkat TCRβ−/− cells expressing a CDR3 saturation-mutagenesis library, stained with two peptide-HLA-A*02:01 tetramers (original and novel peptide) plus anti-CD3, FACS-sorted into four gates, gDNA sequenced. Particulars: with HLA-A*02:01 with peptide … (NLV 2-1, the novel peptide), tetramers 1 µg/mL, 30 min on ice, SP, DP and SW gates expanded about 10 days between rounds ('two to three rounds of selection' in the Methods), gate SW: higher = more of the variant in the gate that binds the novel peptide and not the original one = switched binding. Fold enrichment of the CDR3 variant in one FACS gate of a two-tetramer stain, unresolved parent, parent is a CDR3 fragment, scale: fold enrichment, numbering: sequential-on-construct, sequence starts at 1.
Take […] (CDR3 as printed); P4D derived by comparing it with the table's wild-type CDR3 ASSPTGGSPSPLH: the enrichment was determined as 0.

Turning to […] (CDR3 as printed); P4G derived by comparing it with the table's wild-type CDR3 ASSPTGGSPSPLH, the enrichment came to 0.

Regarding […] (CDR3 as printed); L12F derived by comparing it with the table's wild-type CDR3 ASSPTGGSPSPLH, the enrichment was found to be 0.

For […] (CDR3 as printed); S2Y derived by comparing it with the table's wild-type CDR3 ASSPTGGSPSPLH, the enrichment was 0.

Regarding […] (CDR3 as printed); L12P derived by comparing it with the table's wild-type CDR3 ASSPTGGSPSPLH, the enrichment was determined as 0.

As for […] (CDR3 as printed); S3F derived by comparing it with the table's wild-type CDR3 ASSPTGGSPSPLH, the enrichment was 0.

For the variant […] (CDR3 as printed); P9L derived by comparing it with the table's wild-type CDR3 ASSPTGGSPSPLH, the enrichment was determined as 0.

Turning to […] (CDR3 as printed); T5A derived by comparing it with the table's wild-type CDR3 ASSPTGGSPSPLH, the enrichment was determined as 0.

With […] (CDR3 as printed); G7E derived by comparing it with the table's wild-type CDR3 ASSPTGGSPSPLH, the enrichment stood at 0.

[…] (CDR3 as printed); T5C derived by comparing it with the table's wild-type CDR3 ASSPTGGSPSPLH: the enrichment was determined as 0.

Take […] (CDR3 as printed); P11T derived by comparing it with the table's wild-type CDR3 ASSPTGGSPSPLH: the enrichment stood at 0.

As for […] (CDR3 as printed); P9Y derived by comparing it with the table's wild-type CDR3 ASSPTGGSPSPLH, the enrichment stood at 0.

With […] (CDR3 as printed); P11S derived by comparing it with the table's wild-type CDR3 ASSPTGGSPSPLH, the enrichment worked out at 0.

For […] (CDR3 as printed); H13R derived by comparing it with the table's wild-type CDR3 ASSPTGGSPSPLH, the enrichment was 0.

[…] (CDR3 as printed); S3G derived by comparing it with the table's wild-type CDR3 ASSPTGGSPSPLH: the enrichment came to 0.

As to […] (CDR3 as printed); P4F derived by comparing it with the table's wild-type CDR3 ASSPTGGSPSPLH, the enrichment worked out at 0.

Turning to […] (CDR3 as printed); A1R derived by comparing it with the table's wild-type CDR3 ASSPTGGSPSPLH, the enrichment was 0.

On to […] (CDR3 as printed); S3P derived by comparing it with the table's wild-type CDR3 ASSPTGGSPSPLH, for which the enrichment was 0.

For the variant […] (CDR3 as printed); L12D derived by comparing it with the table's wild-type CDR3 ASSPTGGSPSPLH, the enrichment worked out at 0.

Regarding […] (CDR3 as printed); P4I derived by comparing it with the table's wild-type CDR3 ASSPTGGSPSPLH, the enrichment worked out at 0.

Regarding […] (CDR3 as printed); P9T derived by comparing it with the table's wild-type CDR3 ASSPTGGSPSPLH, the enrichment is 0.

On to […] (CDR3 as printed); G7D derived by comparing it with the table's wild-type CDR3 ASSPTGGSPSPLH, for which the enrichment was 0.

Consider […] (CDR3 as printed); P9V derived by comparing it with the table's wild-type CDR3 ASSPTGGSPSPLH, for which the enrichment was found to be 0.

Turning to […] (CDR3 as printed); H13W derived by comparing it with the table's wild-type CDR3 ASSPTGGSPSPLH, the enrichment was found to be 0.

Take […] (CDR3 as printed); S2T derived by comparing it with the table's wild-type CDR3 ASSPTGGSPSPLH: the enrichment is 0.

On to […] (CDR3 as printed); S10W derived by comparing it with the table's wild-type CDR3 ASSPTGGSPSPLH, for which the enrichment was determined as 0.

For […] (CDR3 as printed); P9D derived by comparing it with the table's wild-type CDR3 ASSPTGGSPSPLH, the enrichment was 0.

For the variant […] (CDR3 as printed); G7F derived by comparing it with the table's wild-type CDR3 ASSPTGGSPSPLH, the enrichment is 0.

[…] (CDR3 as printed); P4A derived by comparing it with the table's wild-type CDR3 ASSPTGGSPSPLH: the enrichment was found to be 0.

Turning to […] (CDR3 as printed); P4S derived by comparing it with the table's wild-type CDR3 ASSPTGGSPSPLH, the enrichment stood at 0.

Consider […] (CDR3 as printed); A1V derived by comparing it with the table's wild-type CDR3 ASSPTGGSPSPLH, for which the enrichment turned out to be 0.

As for […] (CDR3 as printed); S3H derived by comparing it with the table's wild-type CDR3 ASSPTGGSPSPLH, the enrichment was found to be 0.

On to […] (CDR3 as printed); P11I derived by comparing it with the table's wild-type CDR3 ASSPTGGSPSPLH, for which the enrichment worked out at 0.

As to […] (CDR3 as printed); P11L derived by comparing it with the table's wild-type CDR3 ASSPTGGSPSPLH, the enrichment is 0.

As for […] (CDR3 as printed); S2E derived by comparing it with the table's wild-type CDR3 ASSPTGGSPSPLH, the enrichment turned out to be 0.

As for […] (CDR3 as printed); A1H derived by comparing it with the table's wild-type CDR3 ASSPTGGSPSPLH, the enrichment was found to be 0.

In the case of […] (CDR3 as printed); A1P derived by comparing it with the table's wild-type CDR3 ASSPTGGSPSPLH, the enrichment stood at 0.

As for […] (CDR3 as printed); P11K derived by comparing it with the table's wild-type CDR3 ASSPTGGSPSPLH, the enrichment came out at 0.

On to […] (CDR3 as printed); S2K derived by comparing it with the table's wild-type CDR3 ASSPTGGSPSPLH, for which the enrichment is 0.

For […] (CDR3 as printed); G6S derived by comparing it with the table's wild-type CDR3 ASSPTGGSPSPLH, the enrichment was found to be 0.

[…] (CDR3 as printed); P4H derived by comparing it with the table's wild-type CDR3 ASSPTGGSPSPLH: the enrichment is 0.

For the variant […] (CDR3 as printed); S10F derived by comparing it with the table's wild-type CDR3 ASSPTGGSPSPLH, the enrichment is 0.

Source of the values: PMC13397619.
